Columns and labels:
[1] = "ARCHITECT" Intrinsic Factor Binding Capacity Assay (one-step competitive assay); conditions: read from vitamin B12 calibration curve, converted to binding capacity using an equation
Procedure: The vitamin B12-binding capacity of the recombinant porcine Intrinsic Factor was measured using in “ARCHITECT” Intrinsic Factor Binding Capacity Assay. The assay is a one-step competitive assay where intrinsic factor from the test sample competes with intrinsic factor coated onto microparticles for the vitamin B12-acridinium tracer. Thus, signal in the assay is inversely proportional to the concentration of intrinsic factor in the test sample. The results are read from a vitamin B12 calibration curve, and the vitamin B12 concentration results are converted to binding capacity using an equation. The Binding Capacity Value for the recombinant porcine intrinsic factor was determined to be 904 ng/ml.

[2] = vitamin B12-Alkaline Phosphatase conjugate blot; assay type: binding; conditions: E. coli lysate, SDS-PAGE, blotted onto nitrocellulose, probed with vitamin B12-alkaline phosphatase conjugate
From the text: FIG. 2 illustrates the binding of recombinant porcine intrinsic factor to vitamin B12. The E. coli cells were lysed and the proteins were resolved using SDS-PAGE and blotted onto a nitrocellulose membrane. The membrane was probed with vitamin B12 conjugate to alkaline phosphatase. […] Lane 1 contains molecular weight markers (marked in kilodaltons). Lanes 2, 3, 4, and 5 represent cells from various clones expressing recombinant porcine intrinsic factor. Lane 6 contains the native porcine intrinsic factor (purified from hog (Sus scrofa) gut).
The E. coli lysate containing the expressed recombinant porcine intrinsic factor was run on an SDS-PAGE (Polyacrylamide Gel Electrophoresis), and the gel was blotted onto nitrocellulose. This blot was probed with vitamin B12-alkaline phosphatase conjugate and developed using an appropriate substrate. […] Referring now to FIG. 2, Lane 1 contains molecular weight markers (marked in kilodaltons). Lanes 2, 3, 4, and 5 represent cells from various clones expressing recombinant porcine intrinsic factor. Lane 6 contains the native porcine intrinsic factor (purified from hog (Sus scrofa) gut).

[3] = test system: anti-intrinsic factor antibody; assay: Western blotting with anti-intrinsic factor antibody; assay type: binding; conditions: E. coli lysate, SDS-PAGE, blotted onto nitrocellulose, probed with anti-intrinsic factor antibody
From the text: FIG. 3 illustrates the binding of recombinant porcine intrinsic factor to anti-intrinsic factor antibody by Western blotting. The E. coli cells were lysed and the proteins were resolved using SDS-PAGE and blotted onto a nitrocellulose membrane. The membrane was then probed with anti-intrinsic factor antibody. Lane 1 contains molecular weight markers (marked in kilodaltons). Lanes 2, 3, 4, and 5 represent cells from various clones expressing recombinant porcine intrinsic factor. Lane 6 contains the native porcine intrinsic factor (purified from hog (Sus scrofa) gut).
The E. Coli lysate containing the expressed recombinant porcine intrinsic factor was run on an SDS-PAGE (Polyacrylamide Gel Electrophoresis), and the gel was blotted onto nitrocellulose. This blot was probed with anti-intrinsic factor antibody and developed using an appropriate substrate. […] Referring now to FIG. 3, Lane 1 contains molecular weight markers (marked in kilodaltons). Lanes 2, 3, 4, and 5 represent cells from various clones expressing recombinant porcine intrinsic factor. Lane 6 contains the native porcine intrinsic factor (purified from hog (Sus scrofa) gut).

[4] = Solubility of the protein expressed in E. coli; assay type: physicochemical; conditions: expression in E. coli from the named vector
Procedure: Using the Porcine IF cDNA14-1248 (SEQ ID NO: 5) as the template and the Forward Primer pIFMP-ForI (SEQ ID NO: 14) and Reverse Primer pIFMP-RevXhoI (SEQ ID NO: 15), the cDNA encoding the Porcine IF cDNA54-1254-Mature Peptide was amplified by PCR. The PCR profile was as follows: one initial denaturation step at a temperature of 95° C. for 5 minutes; then 33 cycles of the following conditions: a temperature of 95° C. for 30 seconds, then a temperature of 57° C. for 30 seconds, then a temperature of 72° C. for 1 minute; followed by a final extension at a temperature of 72° C. for 5 minutes. This PCR fragment was subcloned into pGEMEX-1 expression vector (purchased from Promega Corporation, Madison, Wis.).
To produce a soluble version of this protein, cDNA encoding the Porcine IF cDNA54-1254-Mature Peptide was amplified by PCR using IF cDNA14-1248 (SEQ ID NO: 5) as the template and the Forward primer pIF-PIC-MP-For EcoR1 (SEQ ID NO: 16) and the Reverse pIF-MP-pMAL-SaI1 Rev primer (SEQ ID NO: 17) and the following PCR conditions: one initial denaturation step at a temperature of 95° C. for 5 minutes; then 35 cycles of the following conditions: a temperature of 95° C. for 30 seconds, then a temperature of 56° C. for 30 seconds, then a temperature of 72° C. for 1 minute; followed by a final extension at a temperature of 72° C. for 5 minutes. […]

| Molecule | Binding Capacity Value (vitamin B12-binding capacity) [1] [ng/mL] | binding to vitamin B12 (band developed color) [2] | binding to anti-intrinsic factor antibody (band developed color) [3] | solubility of the expressed protein [4] |
| --- | --- | --- | --- | --- |
| recombinant porcine intrinsic factor: Recombinant porcine intrinsic factor produced in E. coli from the pMAL-IF or pET32a-IF vector, affinity purified (protein, S. scrofa) YNLKAQKLLTYKLMATNTSDLTTGQLALTIMALTSSCRDPGNRIAILQGQMENWAPPSLDTHASTFYEPSLGILTLCQNNPEKTLPLAARFAKTLLANSSPFNMDTGAMATLALTCMYNKIPVGSEEGYRALFSQVLRNTVENISMRIQDNGIIGNIYSTGLAMQALSVTPEQPNKEWDCQKTMDTVLTEIKEGKFHNPMAIAQILPSLKGKTYLDVPHVSCSPGHEVPPTLPNHPSPVPTPAPNITVIYTINNQLRGVELLFNETISVSVKRGSVLLIVLEEAQRKNPKFKFETTMTSWGPVVSSINNIAENVNHRTYWQFLSGQTPLNEGVADYIPFNHEHITANFTQY | 904 | bound to vitamin B12 | recognized by the antibody |  |
| Porcine IF cDNA54-1254-Mature Peptide: Porcine intrinsic factor mature peptide, 399 amino acids, SEQ ID NO: 9, expressed from pGEMEX-1 expression vector (protein, S. scrofa) STQTRSSCSVPSAEQPLVNGIQVLMEQSVTSSAFPNPSILIAMNLAGAYNTEAQELLTYKLMATNTSDLTTGQLALTIMALTSSCRDPGNRIAILQGQMENWAPPSLDTHASTFYEPSLGILTLCQNNPEKTLPLAARFAKTLLANSSPFNMDTGAMATLALTCMYNKIPVGSEEGYRALFSQVLRNTVENISMRIQDNGIIGNIYSTGLAMQALSVTPEQPNKEWDCQKTMDTVLTEIKEGKFHNPMAIAQILPSLKGKTYLDVPHVSCSPGHEVPPTLPNHPSPVPTPAPNITVIYTINNQLRGVELLFNETISVSVKRGSVLLIVLEEAQRKNPKFKFETTMTSWGPVVSSINNIAENVNHRTYWQFLSGQTPLNEGVADYIPFNHEHITANFTQY |  |  |  | insoluble and formed inclusion bodies |
